Bridge positions count the residues as written; N and C are the ends. Ends that are not written are not given here.
Legend:
[1] = biological target: β2 integrins on THP-1 cells; assay: inhibition of THP-1 cell adhesion to coated von Willebrand factor, phosphatase assay
[2] = biological target: β2 integrins on THP-1 cells; assay: inhibition (partial) of THP-1 cell adhesion to coated type IV collagen, phosphatase assay
[3] = biological target: β2 integrins on THP-1 cells; assay: inhibition of THP-1 cell adhesion to coated LLG-C4-GST, phosphatase assay
[4] = biological target: β2 integrins on THP-1 cells; assay: inhibition of THP-1 cell adhesion to coated LLG-C4-GST

B1: C(1-8;3-9) peptide (peptide)
peptide: CPCFLLGCC
modifications: disulfide 1-8, 3-9
IC50 [1]: 20 µM | IC50 [2]: 200 µM | IC50 [3]: 20 µM

B2: C(1-9;3-8) peptide (peptide)
peptide: CPCFLLGCC
modifications: disulfide 1-9, 3-8
fold less active than C(1-8;3-9) [4]: 20 fold

Source: patent US20040259798A1
